Laboratory results taken from patent publication US20110129458A1 (Ablynx, published 2011).

T1: rhPDL2-Fc: fusion protein of the extracellular part of human PD-L2 and mouse Fc gamma 1, R&D Systems Cat … (human; mouse, UniProt Q9BQ51 20-220)
T1 construct: extracellular domain; Bought product, made in NS0 cells; also called PD-L2 ectodomain; PDL2/hFc
T1 sequence (looked up): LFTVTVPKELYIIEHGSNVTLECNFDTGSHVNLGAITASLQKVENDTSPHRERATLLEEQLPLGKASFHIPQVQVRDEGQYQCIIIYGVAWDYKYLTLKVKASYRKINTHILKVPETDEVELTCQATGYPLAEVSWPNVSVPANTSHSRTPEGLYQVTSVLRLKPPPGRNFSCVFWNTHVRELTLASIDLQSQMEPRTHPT


Experiments:
[1] = biological target: T2, rhB7H1-Fc: fusion protein of the extracellular part of human B7-H1 (PD-L1) and mouse Fc gamma 1, R&D Systems … (human; mouse, UniProt Q9NZQ7 19-238); assay: ELISA, purified Nanobody titrated on coated rhB7H1-Fc (Example 5), OD 490 nm
T2 construct: extracellular domain; Bought product, made in NS0 cells; also called B7-H1 ectodomain; B7H1/hFc
Experimental: In short, 5 μg/ml B7-H1 ectodomain (rhB7H1-Fc, R&D Systems, Minneapolis, US, Cat #156-B7) or control Fc was immobilized on maxisorp microtiter plates (Nunc, Wiesbaden, Germany) and free binding sites were blocked using 4% Marvel in. PBS. […] […] Binding specificity was determined based on OD values compared to controls having received no Nanobody (low control). 17 out of the 96 selected clones were able to bind to B7-H1 with some specificity.

[2] = biological target: T1, rhPDL2-Fc: fusion protein of the …; assay: ELISA, Nanobody dilution series 1-3125 nM on coated PDL2/hFc, rabbit anti-VHH detection, OD 490 nm (Example 10)
Experimental: (§1) In order to check for bispecific binding, the clones selected and screened for B7-H1 binding were tested for binding PD-L2 in an ELISA setup. In short, plates were coated with 100 μl (2 μg/ml) of PDL2/hFc (R&D Systems, Minneapolis, US, Cat #1224-PL) in PBS overnight at 4C. After washing, plates were blocked with 4% MPBS for 2 hours on a shaker, A dilution series of Nanobody (1-3125 nM) in 100 μl 2% Marvell/PBS was added and incubated for 1 hour on a shaker. After washing, detection was performed with 100 μl 1:5000 rabbit-anti-VHH in 2% Marvell/PBS for 1 hour on a shaker. After washing, anti-VHH antibody was detected with 100 μl 1:5000 DARPO (in 2% Marvell/PBS for 1 hour on a shaker). PO was detected with 100 μl OPD (add 1:1000 H₂O₂ before use). The reaction was stopped with 50 μM H₂SO₄ and absorption was read at 490 nm with a platereader.

[3] = biological target: T1, rhPDL2-Fc: fusion protein of the …; assay: ELISA, purified Nanobody titrated on coated PD-L2-Fc (Example 9), OD 490 nm
Experimental: In short, 5 μg/ml PD-L2 ectodomain (R&D Systems, Minneapolis, US, Cat #1224-PL) was immobilized on maxisorp microtiter plates (Nunc, Wiesbaden, Germany) and free binding sites were blocked using 4% Marvel in PBS. Next, 10 μl of periplasmic extract containing Nanobody of the different clones in 100 μl 2% Marvel PBST were allowed to bind to the immobilized antigen. […] Binding specificity was determined based on OD values compared to controls having received no Nanobody (low control). 32 out of the 96 selected clones were able to bind to PD-L2 with some specificity.
Clones were selected for recloning in an expression vector derived from pUC119 which contained the LacZ promoter, a resistance gene for ampicillin or carbenicillin, a multicloning site and the gen3 leader sequence. In frame with the Nanobody® coding sequence, the vector coded for a C-terminal c-myc tag and a (His)6 tag. After expression, the obtained Nanobodies were purified via the His-tag on Talon beads. Purified Nanobodies were tested in ELISA for binding to PD-L2 as described.

[4] = biological target: T2, rhB7H1-Fc: fusion protein of the …; assay: ELISA, Nanobody dilution series 1-3125 nM on coated B7H1/hFc, rabbit anti-VHH detection, OD 490 nm (Example 11)
Experimental: as §1, with “PD-L2” for “B7-H1”, “PD-L1” for “PD-L2”, “B7H1/hFc” for “PDL2/hFc”, “#156-B7)” for “#1224-PL)”, “shaker.” for “shaker,”, “μl 1 M” for “μM”

T2 sequence (Q9NZQ7 19-238 limits assumed): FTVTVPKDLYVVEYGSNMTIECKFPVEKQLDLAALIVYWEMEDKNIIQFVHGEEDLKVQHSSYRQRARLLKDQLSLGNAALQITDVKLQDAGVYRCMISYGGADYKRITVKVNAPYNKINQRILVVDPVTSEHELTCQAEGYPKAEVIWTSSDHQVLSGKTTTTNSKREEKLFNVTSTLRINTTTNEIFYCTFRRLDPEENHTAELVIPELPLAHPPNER

Binder	binding result [1]	EC50 (read off the curve) [2]	binding result [2]	binding result [3]	binding result [4]
104D2 (VHH, purified via the His-tag; also called anti-B7H1 nanobody 104D2) VHH: EVQLVESGGGLVQPGGSLRLSCAASGFTLDYYAIGWFRQAPGKEREWASSISSSDGSTYYADSVKGRFTISRDNAKNTVFLQMNSLKPEDTAVYSCAASQAPITIATMMKPFYDYWGQGTQVTVSS	binds	–	–	–	–
104D7 (VHH, also called anti-B7H1 nanobody 104D7) VHH: EVQLVESGGGLVQAGGSLTISCAASGITFSDSIVSWYRRARGKQREWVAGISNGGTTKYAESVLGRFTISRDNAKNMVYLQMNGLNPEDTAVYLCKVRQYWGQGTQVTVSS	binds	~30 nM	–	–	–
104B10 (VHH, also called anti-B7H1 nanobody 104B10) VHH: EVQLVESGGGLVQAGGSLRLSCAASGSTFSQYDVGWYRQAPGKQRELVAFSSSGGRTIYPDSVKGRFTFSRDNTKNTVYLQMTSLKPEDTAVYYCKIDWYLNSYWGQGTQVTVSS	binds	–	binds	–	–
103F10 (VHH, also called anti-PDL2 nanobody 103F10) VHH: EVQLVESGGGLVQAGGSLRLSCAASGRTFSSGTMGWFRRAPGKEREFVASIPWSGGRTYYADSVKDRFTISRDNAQNTVFLQMNSLKPEDTAVYYCAFKERSTGWDFASWGQGIQVTVSS	–	–	–	binds	binds
104F5 (VHH, purified via the His-tag; also called anti-B7H1 nanobody 104F5) VHH: EVQLVESGGGLVQPGGSLRLSCAASGFTLDYYAKCWFRQAPGKEREWVSCISSSDGSTYYADSVKGRFTISRDNAKNTVYLQMNSLKPEDTAVYFCAARHGGPLTVEYFFDYWGQGTQVTVSS	binds	–	no binding (tested: 3125 nM)	–	–
103D3 (VHH, also called anti-PDL2 nanobody 103D3) VHH: EVQLVESGGGLVEPGGSLRLSCVASGFTFSSYDMSWVRQAPGKGLEWVSTINSGGGITYRGSVKGRFTISRDNAKNTLYLQMNSLKPEDTAVYYCENGGSSYRRGQGTQVTVSS	–	–	–	binds	no binding (tested: 3125 nM)
103E2 (VHH, also called anti-PDL2 nanobody 103E2) VHH: EVQLVESGGGLVQAGGSLRLSCAASGSTFSNYVSNYAMGWGRQAPGTQRELVASISNGDTTNYADSVKGRFTISRDNAKNTVYLQMNSLKPEDTAVYYCFEHQVAGLTWGQGTQVTVSS	–	–	–	binds	no binding (tested: 3125 nM)
104E12 (VHH, also called anti-B7H1 nanobody 104E12) VHH: EVQLVESGGGLVQPGGSLRLSCAASGFTFDYYAIGWFRQAPGKAREGVSCISGGDNSTYYADSVKGRFTISRDNAKNTVYLQMNSLKPEDTAVYYCATGGWKYCSGYDPEYIYWGQGTQVTVSS	–	–	no binding (tested: 3125 nM)	–	–
